Values of other authors, collected in PMC3416887.

Molecular target: FibP (Homo sapiens) (UniProt P02679)

Kd: 630 nM
Substance: thrombin (from UniProt P00734)
